Experimental data as given in ChEMBL document CHEMBL4304758, “Development of Peptide-Based Sirtuin Defatty-Acylase Inhibitors Identified by the Fluorescence Probe, SFP3, That Can Efficiently Measure Defatty-Acylase Activity of Sirtuin” (J Med Chem, 2019).

Legend:
[1] = compound: CCCCCCCCCCCCCC(=S)NCCCC[C@H](NC(=O)[C@@H](NC(=O)[C@H](CCCNC(=N)N)NC(C)=O)[C@@H](C)CC)C(=O)N[C@@H](CCCNC(=N)N)C(=O)N[C@@H](Cc1ccc(O)cc1)C(N)=O; experiment: Mixed-inhibition of recombinant human SIRT2 defatty-acylase activity assessed as substrate Km at 30 nM using varying levels of SFP3 as substrate measured at 1 min interval for 30 mins in presence of NAD+ by Michaelis-Menten plot analysis (reference value: 0.55 +/- 0.04 uM)
[2] = compound: CC[C@H](C)[C@H](NC(=O)[C@H](CCCNC(=N)N)NC(C)=O)C(=O)N[C@@H](CCCCNC(=O)Cc1ccc(/N=N/c2ccc(O)cc2)cc1)C(=O)N[C@@H](CCCNC(=N)N)C(=O)N[C@@H](Cc1ccc(O)cc1)C(N)=O; experiment: as above
[3] = compound: CCCCCCCCCCCCCC(=S)NCCCC[C@H](NC(=O)[C@@H](NC(=O)[C@H](CCCNC(=N)N)NC(C)=O)[C@@H](C)CC)C(=O)N[C@@H](CCCNC(=N)N)C(=O)N[C@@H](Cc1ccc(O)cc1)C(N)=O; experiment: Mixed-inhibition of recombinant human SIRT2 defatty-acylase activity assessed as substrate Km at 20 nM using varying levels of SFP3 as substrate measured at 1 min interval for 30 mins in presence of NAD+ by Michaelis-Menten plot analysis (reference value: 0.55 +/- 0.04 uM)
[4] = compound: CC[C@H](C)[C@H](NC(=O)[C@H](CCCNC(=N)N)NC(C)=O)C(=O)N[C@@H](CCCCNC(=O)Cc1ccc(/N=N/c2ccc(O)cc2)cc1)C(=O)N[C@@H](CCCNC(=N)N)C(=O)N[C@@H](Cc1ccc(O)cc1)C(N)=O; experiment: as above
[5] = compound: CCCCCCCCCCCCCC(=S)NCCCC[C@H](NC(=O)[C@@H](NC(=O)[C@H](CCCNC(=N)N)NC(C)=O)[C@@H](C)CC)C(=O)N[C@@H](CCCNC(=N)N)C(=O)N[C@@H](Cc1ccc(O)cc1)C(N)=O; experiment: Mixed-inhibition of recombinant human SIRT2 defatty-acylase activity assessed as substrate Km at 15 nM using varying levels of SFP3 as substrate measured at 1 min interval for 30 mins in presence of NAD+ by Michaelis-Menten plot analysis (reference value: 0.55 +/- 0.04 uM)
[6] = compound: CC[C@H](C)[C@H](NC(=O)[C@H](CCCNC(=N)N)NC(C)=O)C(=O)N[C@@H](CCCCNC(=O)Cc1ccc(/N=N/c2ccc(O)cc2)cc1)C(=O)N[C@@H](CCCNC(=N)N)C(=O)N[C@@H](Cc1ccc(O)cc1)C(N)=O; experiment: as above

B1: NAD-dependent protein deacetylase sirtuin-2 (Homo sapiens), Q8IXJ6 (protein)
chain: MAEPDPSHPLETQAGKVQEAQDSDSDSEGGAAGGEADMDFLRNLFSQTLSLGSQKERLLDELTLEGVARYMQSERCRRVICLVGAGISTSAGIPDFRSPSTGLYDNLEKYHLPYPEAIFEISYFKKHPEPFFALAKELYPGQFKPTICHYFMRLLKDKGLLLRCYTQNIDTLERIAGLEQEDLVEAHGTFYTSHCVSASCRHEYPLSWMKEKIFSEVTPKCEDCQSLVKPDIVFFGESLPARFFSCMQSDFLKVDLLLVMGTSLQVQPFASLISKAPLSTPRLLINKEKAGQSDPFLGMIMGLGGGMDFDSKKAYRDVAWLGECDQGCLALAELLGWKKELEDLVRREHASIDAQSGAGVPNPSTSASPKKSPPPAKDEARTTEREKPQ
Km [1]: 1.1 µM
Km [2]: 2.5 µM
Km [3]: 0.48 µM
Km [4]: 1.1 µM
Km [5]: 0.47 µM
Km [6]: 0.76 µM
